Laboratory results reported in article PMC10714925.

Test system: Clp-GST (Xanthomonas oryzae pv. oryzae PXO99A)
Assay: MST
Conditions: MST: 50 mM Tris pH 7.5, 150 mM NaCl, 10 mM MgCl2, 0.05% Tween 20, 25 C, buffer not given

In the case of xanfur promoter, FAM-labeled, the Kd is reported as 0.687 nM.
